The data set “SEC-MALS” concerns the molecule itself. Kind of data set: SEC-MALS.
The data set “[…]” concerns the molecule itself. Briefly: […].
For data set [1], the target named is T1, Gemin5 cleavage fragment p85, wild type, with C-terminal TAP tag (human, UniProt Q8TEQ6 845-1508).
T1 sequence: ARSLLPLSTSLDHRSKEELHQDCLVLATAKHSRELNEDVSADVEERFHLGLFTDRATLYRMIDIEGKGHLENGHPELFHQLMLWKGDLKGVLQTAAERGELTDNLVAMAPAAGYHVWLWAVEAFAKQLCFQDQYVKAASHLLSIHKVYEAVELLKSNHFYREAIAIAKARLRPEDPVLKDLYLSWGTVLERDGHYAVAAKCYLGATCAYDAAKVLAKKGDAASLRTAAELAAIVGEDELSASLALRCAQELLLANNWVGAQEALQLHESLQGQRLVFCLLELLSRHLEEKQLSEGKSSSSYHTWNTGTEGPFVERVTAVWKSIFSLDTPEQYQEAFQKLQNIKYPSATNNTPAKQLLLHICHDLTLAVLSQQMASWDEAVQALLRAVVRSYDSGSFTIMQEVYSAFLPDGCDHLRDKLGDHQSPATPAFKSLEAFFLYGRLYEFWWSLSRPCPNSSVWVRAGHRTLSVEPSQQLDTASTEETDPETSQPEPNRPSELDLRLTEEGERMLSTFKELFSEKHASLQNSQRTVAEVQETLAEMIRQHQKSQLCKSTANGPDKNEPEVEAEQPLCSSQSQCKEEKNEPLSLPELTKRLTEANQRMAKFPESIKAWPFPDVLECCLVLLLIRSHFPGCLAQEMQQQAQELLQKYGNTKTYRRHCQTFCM
Kind of data set: co-IP.

Data set [2] deals with G5-TPR (Gemin5 TPR-like dimerization domain) (Homo sapiens, UniProt Q8TEQ6 807-1097). Kind of data set: EMSA.

Substitutions are numbered along the chain they refer to. In names and notes the source's numbering stands.

B1: Gemin5 TPR-like domain (residues 807-1097), wild type (domain or fragment)
chain: TPVSSGFEKSKVTINNKVILLKKEPPKEKPETLIKKRKARSLLPLSTSLDHRSKEELHQDCLVLATAKHSRELNEDVSADVEERFHLGLFTDRATLYRMIDIEGKGHLENGHPELFHQLMLWKGDLKGVLQTAAERGELTDNLVAMAPAAGYHVWLWAVEAFAKQLCFQDQYVKAASHLLSIHKVYEAVELLKSNHFYREAIAIAKARLRPEDPVLKDLYLSWGTVLERDGHYAVAAKCYLGATCAYDAAKVLAKKGDAASLRTAAELAAIVGEDELSASLALRCAQELLL
Take B1: the “stoichiometry N” value in the data set “SEC-MALS” turned out to be 2.

B2: Gemin5 TPR-like domain (residues 807-1097) A951E (domain or fragment)
chain: B1 chain with A145E
Regarding B2, in data set […], the “stoichiometry N” value came out at 2.

B3: Gemin5, full-length endogenous protein (natural protein)
chain: MGQEPRTLPPSPNWYCARCSDAVPGGLFGFAARTSVFLVRVGPGAGESPGTPPFRVIGELVGHTERVSGFTFSHHPGQYNLCATSSDDGTVKIWDVETKTVVTEHALHQHTISTLHWSPRVKDLIVSGDEKGVVFCYWFNRNDSQHLFIEPRTIFCLTCSPHHEDLVAIGYKDGIVVIIDISKKGEVIHRLRGHDDEIHSIAWCPLPGEDCLSINQEETSEEAEITNGNAVAQAPVTKGCYLATGSKDQTIRIWSCSRGRGVMILKLPFLKRRGGGIDPTVKERLWLTLHWPSNQPTQLVSSCFGGELLQWDLTQSWRRKYTLFSASSEGQNHSRIVFNLCPLQTEDDKQLLLSTSMDRDVKCWDIATLECSWTLPSLGGFAYSLAFSSVDIGSLAIGVGDGMIRVWNTLSIKNNYDVKNFWQGVKSKVTALCWHPTKEGCLAFGTDDGKVGLYDTYSNKPPQISSTYHKKTVYTLAWGPPVPPMSLGGEGDRPSLALYSCGGEGIVLQHNPWKLSGEAFDINKLIRDTNSIKYKLPVHTEISWKADGKIMALGNEDGSIEIFQIPNLKLICTIQQHHKLVNTISWHHEHGSQPELSYLMASGSNNAVIYVHNLKTVIESSPESPVTITEPYRTLSGHTAKITSVAWSPHHDGRLVSASYDGTAQVWDALREEPLCNFRGHRGRLLCVAWSPLDPDCIYSGADDFCVHKWLTSMQDHSRPPQGKKSIELEKKRLSQPKAKPKKKKKPTLRTPVKLESIDGNEEESMKENSGPVENGVSDQEGEEQAREPELPCGLAPAVSREPVICTPVSSGFEKSKVTINNKVILLKKEPPKEKPETLIKKRKARSLLPLSTSLDHRSKEELHQDCLVLATAKHSRELNEDVSADVEERFHLGLFTDRATLYRMIDIEGKGHLENGHPELFHQLMLWKGDLKGVLQTAAERGELTDNLVAMAPAAGYHVWLWAVEAFAKQLCFQDQYVKAASHLLSIHKVYEAVELLKSNHFYREAIAIAKARLRPEDPVLKDLYLSWGTVLERDGHYAVAAKCYLGATCAYDAAKVLAKKGDAASLRTAAELAAIVGEDELSASLALRCAQELLLANNWVGAQEALQLHESLQGQRLVFCLLELLSRHLEEKQLSEGKSSSSYHTWNTGTEGPFVERVTAVWKSIFSLDTPEQYQEAFQKLQNIKYPSATNNTPAKQLLLHICHDLTLAVLSQQMASWDEAVQALLRAVVRSYDSGSFTIMQEVYSAFLPDGCDHLRDKLGDHQSPATPAFKSLEAFFLYGRLYEFWWSLSRPCPNSSVWVRAGHRTLSVEPSQQLDTASTEETDPETSQPEPNRPSELDLRLTEEGERMLSTFKELFSEKHASLQNSQRTVAEVQETLAEMIRQHQKSQLCKSTANGPDKNEPEVEAEQPLCSSQSQCKEEKNEPLSLPELTKRLTEANQRMAKFPESIKAWPFPDVLECCLVLLLIRSHFPGCLAQEMQQQAQELLQKYGNTKTYRRHCQTFCM
Regarding B3, the “fold recruitment against p85-A951E” value in data set [1] worked out at 10 fold.

B4: dsDNA H1-24-s/H1-24-as (dsDNA)
DNA 1: AATTCCCCAAATTCCAGTGTCTGGGTAAG
DNA 2: TCGACTTACCCAGACACTGGAATTTGGGG
Regarding B4, in data set [2], the binding result is recorded as “no binding”.

As to AATTCCCCAAATTCCAGTGTCTGGGTAAG (ssDNA) [ssDNA H1-24-s (29 nt)], the binding result in data set [2] is on record as “no binding”.

For the origin of these results see paper PMC6954437 (Nucleic Acids Research, 2019).
